Data reported in US20220372142A1 (IGM BIOSCIENCES, published 2022).
Residue numbers refer to the chain shown, from its start. Names and notes keep the numbering of the source.

T1: CD20 (UniProt P11836 1-297, limits assumed)
T1 sequence (looked up): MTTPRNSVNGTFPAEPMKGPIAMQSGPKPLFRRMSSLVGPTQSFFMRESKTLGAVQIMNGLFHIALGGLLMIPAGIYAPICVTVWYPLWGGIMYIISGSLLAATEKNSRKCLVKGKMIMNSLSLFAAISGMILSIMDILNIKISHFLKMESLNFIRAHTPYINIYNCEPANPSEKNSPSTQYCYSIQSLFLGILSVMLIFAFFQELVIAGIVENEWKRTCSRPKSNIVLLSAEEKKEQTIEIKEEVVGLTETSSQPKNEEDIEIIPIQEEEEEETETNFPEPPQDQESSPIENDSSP

B1: RTX-IgM V15J (wt) (bispecific antibody)
VH: QVQLQQPGAELVKPGASVKMSCKASGYTFTSYNMHWVKQTPGRGLEWIGAIYPGNGDTSYNQKFKGKATLTADKSSSTAYMQLSSLTSEDSAVYYCARSTYYGGDWYFNVWGAGTTVTVSA
VL: QIVLSQSPAILSASPGEKVTMTCRASSSVSYIHWFQQKPGSSPKPWIYATSNLASGVPVRFSGSGSGTSYSLTISRVEAEDAATYYCQQWTSNPPTFGGGTKLEIKR
chain: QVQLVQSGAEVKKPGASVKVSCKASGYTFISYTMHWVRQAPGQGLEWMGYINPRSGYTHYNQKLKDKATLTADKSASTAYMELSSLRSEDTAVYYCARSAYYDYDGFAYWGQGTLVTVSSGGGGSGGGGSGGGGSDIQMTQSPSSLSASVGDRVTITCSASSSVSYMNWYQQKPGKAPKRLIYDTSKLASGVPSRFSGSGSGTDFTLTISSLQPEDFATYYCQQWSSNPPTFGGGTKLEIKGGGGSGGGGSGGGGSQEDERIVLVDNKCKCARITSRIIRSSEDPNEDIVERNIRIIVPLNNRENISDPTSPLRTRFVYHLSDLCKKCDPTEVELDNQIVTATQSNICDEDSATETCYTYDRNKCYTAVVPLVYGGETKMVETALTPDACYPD
B2: RTX-IgM V15J (N93E) (bispecific antibody)
VH: B1 VH
VL: B1 VL with N93E
chain: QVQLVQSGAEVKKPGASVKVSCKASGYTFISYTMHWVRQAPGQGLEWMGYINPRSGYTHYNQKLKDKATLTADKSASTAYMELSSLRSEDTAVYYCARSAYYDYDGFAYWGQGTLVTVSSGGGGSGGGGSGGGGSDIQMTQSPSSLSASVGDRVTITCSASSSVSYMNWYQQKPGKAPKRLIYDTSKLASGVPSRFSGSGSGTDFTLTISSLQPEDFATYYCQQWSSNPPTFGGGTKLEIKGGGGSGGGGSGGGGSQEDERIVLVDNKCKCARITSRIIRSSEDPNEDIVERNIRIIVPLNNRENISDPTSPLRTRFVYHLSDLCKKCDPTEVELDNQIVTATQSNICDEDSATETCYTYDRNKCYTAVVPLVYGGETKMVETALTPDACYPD
B3: RTX-IgM V15J (N93D) (bispecific antibody)
VH: B1 VH
VL: B1 VL with N93D
chain: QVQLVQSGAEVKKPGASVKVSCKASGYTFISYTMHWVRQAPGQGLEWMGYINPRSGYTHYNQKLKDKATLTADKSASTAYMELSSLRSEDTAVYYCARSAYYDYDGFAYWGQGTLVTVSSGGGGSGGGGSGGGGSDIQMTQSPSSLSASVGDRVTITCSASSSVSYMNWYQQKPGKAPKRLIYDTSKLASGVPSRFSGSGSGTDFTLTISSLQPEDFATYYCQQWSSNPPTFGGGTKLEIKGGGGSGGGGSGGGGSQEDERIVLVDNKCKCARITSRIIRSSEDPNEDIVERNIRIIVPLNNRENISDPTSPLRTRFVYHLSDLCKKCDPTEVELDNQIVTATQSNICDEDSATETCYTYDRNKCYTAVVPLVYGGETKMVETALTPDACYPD
B4: RTX-IgM + J N93A (antibody)
VH: B1 VH
VL: B1 VL with N93A
chain: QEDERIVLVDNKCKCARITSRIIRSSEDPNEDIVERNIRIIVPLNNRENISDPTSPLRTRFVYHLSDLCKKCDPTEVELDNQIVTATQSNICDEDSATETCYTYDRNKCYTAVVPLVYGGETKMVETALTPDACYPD
notes: Pentameric IgM with wild-type J-chain; IgM constant region of the construct not specified
B5: RTX-IgM + J N93K (antibody)
VH: B1 VH
VL: B1 VL with N93K
chain: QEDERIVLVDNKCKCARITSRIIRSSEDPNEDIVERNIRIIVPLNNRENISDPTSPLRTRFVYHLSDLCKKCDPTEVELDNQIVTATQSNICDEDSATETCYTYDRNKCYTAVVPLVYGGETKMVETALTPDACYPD
notes: as for B4
B6: RTX-IgM + J N93R (antibody)
VH: B1 VH
VL: B1 VL with N93R
chain: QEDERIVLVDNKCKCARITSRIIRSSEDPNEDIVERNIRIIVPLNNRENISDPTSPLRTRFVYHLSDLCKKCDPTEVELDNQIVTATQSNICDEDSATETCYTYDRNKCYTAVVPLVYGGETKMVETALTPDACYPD
notes: as for B4

What was measured:
CD20 [1] = molecular target: T1, CD20; experiment: cell-based or functional assay
CD20 [2] = molecular target: T1, CD20; experiment: flow cytometry on Ramos cells, anti-human kappa AF647 detection
Method: The cells were split every 2-3 days as necessary to maintain the cell density between 0.2-2.0×10⁶ cells/mL. […] The antibody cell mixtures were incubated for 30 minutes on ice in the dark. […] Fluorescent staining data was acquired on FACSCalibur using standard settings and analyzed with FloJo 10. Mean fluorescent intensity (MFI) values were imported into GraphPad Prism, and EC50 or KD values were calculated from the resulting curve fit.

Binder | TDCC on CA46 cells with CD8+ T cells, EC50 (CD20 [1]) [pM] | TDCC on Ramos cells with CD8+ T cells, % Max. (CD20 [1]) [%] | TDCC on Ramos cells with CD8+ T cells, EC50 (CD20 [1]) [pM] | TDCC on normal B cells with CD8+ T cells, EC50 (CD20 [1]) [pM] | EC50 (CD20 [2]) [nM]
B1 | 14 | 98 | 9 | 9 | –
B2 | – | 80 | 107 | 145 | –
B3 | – | 60 | 722 | – | –
B4 | – | – | – | – | 0.69
B5 | – | – | – | – | 0.88
B6 | – | – | – | – | 0.52
